Source: publication PMC8360603

Molecular target: DDB1/DCAF1 C-terminal domain complex (UniProt Q16531)
Chain of UniProt Q16531 (Q16531 whole entry, chain 1 of 2, the tested form may be a part): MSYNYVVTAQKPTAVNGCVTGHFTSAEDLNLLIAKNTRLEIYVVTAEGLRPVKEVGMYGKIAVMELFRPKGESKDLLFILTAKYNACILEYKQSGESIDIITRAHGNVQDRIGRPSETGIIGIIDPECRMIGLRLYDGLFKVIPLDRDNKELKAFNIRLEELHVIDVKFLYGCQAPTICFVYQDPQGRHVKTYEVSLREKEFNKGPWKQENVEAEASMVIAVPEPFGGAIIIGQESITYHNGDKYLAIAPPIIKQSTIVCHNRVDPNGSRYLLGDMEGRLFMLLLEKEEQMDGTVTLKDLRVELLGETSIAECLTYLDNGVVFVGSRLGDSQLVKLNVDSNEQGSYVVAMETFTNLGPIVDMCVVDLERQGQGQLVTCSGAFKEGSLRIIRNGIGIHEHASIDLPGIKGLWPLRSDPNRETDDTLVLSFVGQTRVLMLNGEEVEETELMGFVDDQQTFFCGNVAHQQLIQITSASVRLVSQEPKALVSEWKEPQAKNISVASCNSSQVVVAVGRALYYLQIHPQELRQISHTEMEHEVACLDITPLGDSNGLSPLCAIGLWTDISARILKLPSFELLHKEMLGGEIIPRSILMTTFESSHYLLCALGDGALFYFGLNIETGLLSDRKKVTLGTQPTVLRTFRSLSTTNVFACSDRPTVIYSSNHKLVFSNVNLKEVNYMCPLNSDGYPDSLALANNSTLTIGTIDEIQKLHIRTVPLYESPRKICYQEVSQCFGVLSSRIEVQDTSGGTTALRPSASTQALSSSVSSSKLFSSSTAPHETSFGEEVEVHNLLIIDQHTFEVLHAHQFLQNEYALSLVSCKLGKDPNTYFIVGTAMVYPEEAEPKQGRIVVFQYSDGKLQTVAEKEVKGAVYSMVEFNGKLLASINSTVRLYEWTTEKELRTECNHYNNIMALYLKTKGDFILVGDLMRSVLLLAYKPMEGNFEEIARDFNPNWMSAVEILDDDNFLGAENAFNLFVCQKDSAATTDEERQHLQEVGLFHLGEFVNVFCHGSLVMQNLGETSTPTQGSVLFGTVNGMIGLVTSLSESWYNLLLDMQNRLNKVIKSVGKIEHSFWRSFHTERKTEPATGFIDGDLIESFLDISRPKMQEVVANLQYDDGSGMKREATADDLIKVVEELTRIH
Chain of UniProt Q16531 (Q9Y4B6 1046-1396, chain 2 of 2, further chain): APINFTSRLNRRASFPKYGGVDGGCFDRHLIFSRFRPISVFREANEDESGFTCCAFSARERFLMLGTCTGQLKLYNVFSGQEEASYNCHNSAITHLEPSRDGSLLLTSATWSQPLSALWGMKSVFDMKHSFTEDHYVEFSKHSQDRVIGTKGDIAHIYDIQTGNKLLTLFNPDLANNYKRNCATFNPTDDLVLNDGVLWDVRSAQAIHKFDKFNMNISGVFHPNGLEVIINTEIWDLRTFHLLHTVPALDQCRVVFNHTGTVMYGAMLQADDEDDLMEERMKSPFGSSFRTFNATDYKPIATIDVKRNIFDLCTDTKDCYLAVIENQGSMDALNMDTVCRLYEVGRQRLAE

Question: Which in vitro ubiquitylation of T4L-SAMHD1-CtD by CRL4^DCAF1-CtD (UBA1, UBCH5C, ubiquitin, ATP) with HisSUMO-T4L-Vprmus (1-92), 0-15 min, SDS-PAGE; loss of the unmodified band does the source give for T4L-SAMHD1-CtD (domain or fragment) here?
Answer: > 90%
